These results are taken from patent US20050112564A1 (published 2005).

The target in this assay is T1, avidin (UniProt P02701 25-152).
T1 construct: also called avidin of a bar code 01
Nature of the assay: FITC-peptide incubated with protein-coated bar-coded carriers; fluorescence read in flow tube. The method, then: Carriers of 15 mm in length having a bar code 01 or 02 were prepared by using polymethylmethacrylate fibers as a raw material and introducing carboxyl groups on the surface thereof in the same manner as in Example 1. As in Example 1, 50 carriers having a bar code 01 were dispersed in 10 ml HEPES buffer, 100 μmol hydroxysuccinimide was added thereto, followed by the addition of 100 μmol WSC to succinimidate carboxyl groups, and after washing the carriers with the same buffer, 10 ml of a buffer containing 1 μmol/ml avidin was immediately added thereto to immobilize avidin on the carriers. The carriers were subjected to blocking in 1% BSA solution, and washed with distilled water to prepare carriers to which avidin is bound and which have a bar code 01.
Similarly, a FITC-labeled polypeptide having the […] shown in SEQ ID NO: 7 which consists of 15 amino acids without containing avidin-binding peptide sequence and having FITC at the amino-terminus was synthesized and dissolved in PBS containing 0.1% BSA at a concentration of 2 nmol/ml to prepare a test sample solution.
An apparatus shown in FIGS. 1 and 2 was prepared, and the bar code and fluorescence were detected while passing the solutions prepared in (3) above through a hollow tube in the detection device. As the bar code reader, a hand laser scanner SL-114 (product of Nichiei Intec) was used. […]

No end group written: not given here. *: point of attachment. FITC = O=C1OC2(c3ccc(O)cc3Oc3cc(O)ccc32)c2ccc(NC(=S)*)cc21

T1 sequence (P02701 25-152 limits assumed): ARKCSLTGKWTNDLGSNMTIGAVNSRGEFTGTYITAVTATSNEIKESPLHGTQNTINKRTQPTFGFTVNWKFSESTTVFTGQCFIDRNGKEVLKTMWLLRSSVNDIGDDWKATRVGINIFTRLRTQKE

With {FITC}-ISFENTWLWTSPFSS [FITC-labeled polypeptide of SEQ ID NO: 7 (15 amino acids without avidin-binding peptide sequence)], the binding result is “no binding”.
